According to FireProtDB (doi:10.1110/ps.8.9.1843):

B1: Guanyl-specific ribonuclease Sa wild type, P05798 (protein)
chain: DVSGTVCLSALPPEATDTLNLIASDGPFPYSQDGVVFQNRESVLPTQSYGYYHEYTVITPGARTRGTRRIITGEATQEDYYTGDHYATFSLIDQTC
B2: Guanyl-specific ribonuclease T1 wild type, P00651 (protein)
chain: MMYSKLLTLTTLLLPTALALPSLVERACDYTCGSNCYSSSDVSTAQAAGYQLHEDGETVGSNSYPHKYNNYEGFDFSVSSPYYEWPILSSGDVYSGGSPGADRVVFNENNQLAGVITHTGASGNNFVECT

Conditions: CD, whole UniProt chain shown; for denaturant m value / denaturant midpoint (higher = more stable): Aspergillus oryzae (strain ATCC 42149 / RIB 40), 25 °C, Urea
[1] = Kitasatospora aureofaciens, pH 7, Thermal, MOPS 30 mM

| Protein | Tm [1] [°C] | unfolding enthalpy (van 't Hoff) [1] [kcal/mol] | denaturant m value (pH 2.5, glycine 30 mM) [kcal/mol/M] | denaturant midpoint (higher = more stable) (pH 2.5, glycine 30 mM) [M] | denaturant m value (pH 7, MOPS 30 mM) [kcal/mol/M] | denaturant midpoint (higher = more stable) (pH 7, MOPS 30 mM) [M] |
| --- | --- | --- | --- | --- | --- | --- |
| B1 | 47.2 | 91 |  |  |  |  |
| B2 |  |  | 1.59 | 3.66 | 1.23 | 5.23 |
